This note sets out measurements from patent publication US20150065440A1, “SULFATED OLIGOSACCHARIDE DERIVATIVES” (Progen Pharmaceuticals Limited, priority 2007, published 2015).

Substrate in this data set: CO[C@H]1O[C@H](COS(=O)(=O)O)[C@@H](O[C@@H]2O[C@@H](C(=O)O)[C@@H](O[C@H]3O[C@H](COS(=O)(=O)O)[C@@H](O[C@@H]4O[C@H](C(=O)O)[C@@H](O[C@H]5O[C@H](COS(=O)(=O)O)[C@@H](O)[C@H](O)[C@H]5NS(=O)(=O)O)[C@H](O)[C@H]4O)[C@H](OS(=O)(=O)O)[C@H]3NS(=O)(=O)O)[C@H](O)[C@H]2OS(=O)(=O)O)[C@H](O)[C@H]1NS(=O)(=O)O
Description: purified protein, by the assay type. The conditions noted are these: other: substrate of heparanase; pH 5.0.

B1: recombinant human heparanase (Homo sapiens) (protein)
chain 1: KKFKNSTYSRSSVDVLYTFANCSGLDLIFGLNALLRTADLQWNSSNAQLLLDYCSSKGYNISWELGNEPNSFLKKADIFINGSQLGEDFIQLHKLLRKSTFKNAKLYGPDVGQPRRKTAKMLKSFLKAGGEVIDSVTWHHYYLNGRTATKEDFLNPDVLDIFISSVQKVFQVVESTRPGKKVWLGETSSAYGGGAPLLSDTFAAGFMWLDKLGLSARMGIEVVMRQVFFGAGNYHLVDENFDPLPDYWLSLLFKKLVGTKVLMASVQGSKRRKLRVYLHCTNTDNPRYKEGDLTLYAINLHNVTKYLRLPYPFSNKQVDKYLLRPLGPHGLLSKSVQLNGLTLKMVDDQTLPPLMEKPLRPGSSLGLPAFSYSFFVIRNAKVAACI
chain 2: QDVVDLDFFTQEPLHLVSPSFLSVTIDANLATDPRFLILLGSPKLRTLARGLSPAYLRFGGTKTDFLIFDPKKE
Consider B1, for which the Michaelis-Menten constant (Km) (commonly the substrate concentration at which the rate is half of its maximum) was 33 ± 6 µM.
